{"source": "paper PMC10901556", "about": "“Conservation of Affinity Rather Than Sequence Underlies a Dynamic Evolution of the Motif-Mediated p53/MDM2 Interaction in Ray-Finned Fishes” (Molecular Biology and Evolution, 2024)", "binders": {"B1": {"name": "MDM2_(D.rerio) SWIB domain (domain or fragment)", "chain": "SQISKVDNEKLVRPKVQLKSLLEDAGADKDVFTMKEVMFYLGKYIMSKELYDKQQQHIVHCGEDPLGAVLGVKSFSVKEPRALFALINRNLVT"}, "B2": {"name": "Takifugu rubripes (Japanese puffer) p53TADP1 p53TAD^full-length (domain or fragment)", "chain": "MTLNEMTSSSMFLCRSSSDLPAHHRGRMEDEGFSLPLSQDTFQDLWENVAAPSIVTIPTTSLENEQWHQELLMNYPELPFNEELFNLPSEMASKDSANLSTPTVPV"}, "B3": {"name": "Danio rerio (zebrafish) p53TADP2 p53TAD^15–27 (peptide)", "peptide": "Ac-SQEFAELWEKNL", "notes": "numbers count on: human p53TAD; also called p53TAD^15–27_(D.rerio); source: bought: GeneCust (France), peptide"}}, "assay_in_all_cases": "fluorescence polarisation; displacement: complex of MDM2 (0.2-2 μM) and FITC-p53TAD_(human)^15–26 (15 nM) displaced by increasing unlabeled p53TAD peptide or p53TAD^full-length; KD calculated from IC50 (Nikolovska-Coleska et al. 2004); 20 mM sodium phosphate pH 7.4, 150 mM NaCl, 1 mM TCEP", "conditions_in_all_cases": "both partners purified", "key": {"p53TAD_(H.sapiens)^15–27": {"target": "T1, p53TAD_(H.sapiens)^15–27 (Homo sapiens (human), N-terminal acetylated)", "T1 construct": "also called p53TAD_(human)^15–27; Homo sapiens (human) p53TAD^15–27; source: bought: GeneCust (France), peptide"}, "[1]": {"target": "T2, MDM2 SWIB domain from Takifugu rubripes (Japanese puffer) (Takifugu rubripes (Japanese puffer))", "T2 construct": "MDM2 SWIB domain, Takifugu rubripes; pETM33 vector; Construct limits are in supplementary Spreadsheet S5; also called MDM2 T. rubripes; source: E. coli BL21 (DE3), purified (glutathione agarose, PreScission cleavage, Nickel Sepharose flow-through, SEC); not shown: His6, N-terminal, cleaved; GST, N-terminal, cleaved"}, "[2]": {"target": "B1"}}, "note": "Where no end group is shown, it is not given here.", "data": [{"binder": "B1", "values": [{"measurement": "Kd", "setting": "p53TAD_(H.sapiens)^15–27", "value": "790 ± 50", "unit": "nM"}]}, {"binder": "B2", "values": [{"measurement": "Kd", "setting": "[1]", "value": "470 ± 30", "unit": "nM"}]}, {"binder": "B3", "values": [{"measurement": "Kd", "setting": "[2]", "value": "3600 ± 300", "unit": "nM"}]}]}
